Data as given in publication doi:10.1101/2022.04.06.487260, “The purified recombinant FAT domain of the Focal Adhesion Kinase does not bind directly to recombinant Talin or MBD2 in vitro” (bioRxiv, 2022).

Target: T1, Talin F2F3 (206-405, C336S) (UniProt Q9Y490 206-405, C336S)
T1 construct: Talin (head 1-433, rod 434-2541), F2 and F3 lobes of the FERM domain, residues 206-405; gene codon optimised and synthesised; the purification (beads before and after cleavage, elution as a 25 kDa protein) describes the cleaved protein; also called Talin206-405; Talin F2F3 head
Test: NMR titration; 1H-15N HSQC; 90 μM 15N-labelled FAT incubated with Talin at molar ratios of 1:0.5, 1:1 and 1:2; 25 °C
Settings: both partners purified

T1 sequence (Q9Y490 206-405 C336S): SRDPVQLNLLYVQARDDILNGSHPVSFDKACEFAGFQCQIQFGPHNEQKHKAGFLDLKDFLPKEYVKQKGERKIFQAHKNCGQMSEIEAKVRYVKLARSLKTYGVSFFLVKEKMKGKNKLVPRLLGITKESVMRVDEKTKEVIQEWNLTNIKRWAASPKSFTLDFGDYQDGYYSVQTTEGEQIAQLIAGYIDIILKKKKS

Kd: > 100 µM
B1: FAT domain of human FAK (892-1052) (domain or fragment, UniProt Q05397 892-1052, looked up)
chain: SSPADSYNEGVKLQPQEISPPPTANLDRSNDKVYENVTGLVKAVIEMSSKIQPAPPEEYVPMVKEVGLALRTLLATVDETIPLLPASTHREIEMAQKLLNSDLGELINKMKLAQQYVMTSLQQEYKKQMLTAAHALAVDAKNLLDVIDQARLKMLGQTRPH
notes: focal adhesion kinase (FAK), human, residues 892-1052: FAT domain with N-terminal residues preceding the four-helix bundle (922-1049); Expressed as GST fusion from pGex-6P2 and released from the beads with 3C protease; 15N-labelled (M9 medium with 15N-NH4Cl) for the NMR experiments; also called FAT892-1052; FAK FAT; source: E. coli BL21, purified (Glutathione Sepharose 4B, 3C protease, Superdex …)
